B1: NOC4L (natural protein, human (endogenous in TREx BCBL1-Rta), UniProt Q9BVI4 1-516, looked up)
chain: MEREPGAAGVRRALGRRLEAVLASRSEANAVFDILAVLQSEDQEEIQEAVRTCSRLFGALLERGELFVGQLPSEEMVMTGSQGATRKYKVWMRHRYHSCCNRLGELLGHPSFQVKELALSALLKFVQLEGAHPLEKSKWEGNYLFPRELFKLVVGGLLSPEEDQSLLLSQFREYLDYDDTRYHTMQAAVDAVARVTGQHPEVPPAFWNNAFTLLSAVSLPRREPTVSSFYVKRAELWDTWKVAHLKEHRRVFQAMWLSFLKHKLPLSLYKKVLLIVHDAILPQLAQPTLMIDFLTRACDLGGALSLLALNGLFILIHKHNLEYPDFYRKLYGLLDPSVFHVKYRARFFHLADLFLSSSHLPAYLVAAFAKRLARLALTAPPEALLMVLPFICNLLRRHPACRVLVHRPHGPELDADPYDPGEEDPAQSRALESSLWELQALQRHYHPEVSKAASVINQALSMPEVSIAPLLELTAYEIFERDLKKKGPEPVPLEFIPAQGLLGRPGELCAQHFTLS
B2: BUD23 (natural protein, human (endogenous in TREx BCBL1-Rta), UniProt O43709 1-281, looked up)
chain: MASRGRRPEHGGPPELFYDETEARKYVRNSRMIDIQTRMAGRALELLYLPENKPCYLLDIGCGTGLSGSYLSDEGHYWVGLDISPAMLDEAVDREIEGDLLLGDMGQGIPFKPGTFDGCISISAVQWLCNANKKSENPAKRLYCFFASLFSVLVRGSRAVLQLYPENSEQLELITTQATKAGFSGGMVVDYPNSAKAKKFYLCLFSGPSTFIPEGLSENQDEVEPRESVFTNERFPLRMSRRGMVRKSRAWVLEKKERHRRQGREVRPDTQYTGRKRKPRF

Target: T1, FLAG-2xStrep-PNO1 (UniProt Q9NRX1 1-252)
T1 construct: also called PNO1 bait protein
Test: pull-down
Settings: partners not purified

T1 sequence (Q9NRX1 whole entry): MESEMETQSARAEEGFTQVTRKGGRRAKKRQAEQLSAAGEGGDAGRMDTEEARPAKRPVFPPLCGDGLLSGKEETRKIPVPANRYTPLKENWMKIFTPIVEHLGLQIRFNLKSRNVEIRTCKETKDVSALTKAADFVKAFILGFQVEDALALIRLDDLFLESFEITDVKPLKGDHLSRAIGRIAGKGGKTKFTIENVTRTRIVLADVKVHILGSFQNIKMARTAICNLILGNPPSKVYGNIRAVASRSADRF

Binder | fold increase of association during lytic replication over latency (densitometry of pulldown blots, normalised to PNO1) [fold]
B1 | 3.1
B2 | 4.3

From paper PMC9849454, “Kaposi’s sarcoma-associated herpesvirus induces specialised ribosomes to efficiently translate viral lytic mRNAs” (Nature Communications, 2023)
